Results: the supplement of paper PMC9170038

Tested on: MS2 coat protein
Assay: apparent KD of MS2 coat protein; designed switch direction (-1 OFF switch, 1 ON switch): -1; higher = weaker reporter binding
How it was run: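 Designed RNA switches were transcribed on Illumina chips by stalled E. coli RNA polymerase and titrated with SNAP-549-labelled MS2 coat protein from 0.7 or 1.5 nM, doubling to 3 µM. Step length ran from 0.8–1.5 h at the lowest concentration to 10–20 min at the highest. The apparent KD is the median over clusters for each design, from curve-fitted normalised cluster fluorescence.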

[1] = Eterna round: R95, input ligand: microRNA oligo, concentration not stated
[2] = input ligand: microRNA oligo, concentration not stated

Row | Sequence | apparent KD of MS2 coat protein (input ligand: FMN 200 uM) [nM] | apparent KD of MS2 coat protein (input ligand: none) [nM] | further results
1 | GCCCGGGCAGGAUAUACAAGCUUGAGCUGAAAAGUUCGAGUACAUGAGGAUCACCCAUGUAGAAGGGCCCGGGC [-37.5, -35.6 kcal, A 28% 1 bis] (Eterna round: R97, puzzle: Exclusion 2) | 29.4 | 18.7 | 
2 | GCCGAAAGUGUGAGGAUAUACCUAUGGAUACAUAGGUAGAAGGCACAUGAGGAUCACCCAUGUUCCUAAUCGGC [Eli bmx4 4.18] (Eterna round: R97, puzzle: Brourd's mod of Exclusion 4) | 306 | 103 | 
3 | GCCGAUUAAGUGAGGAUAUACCUAUGGAUACAUAGGUAGAAGGUACAUGAGGAUCACCCAUGUUCCUUAACGGC [Fiskers BMX 4 - 8] (puzzle: Brourd's mod of Exclusion 4) |  |  | apparent KD of MS2 coat protein [1]: 10.4 nM
4 | GCCGGAGCAGGAUAUUCAAUAUCACACAUGAGGAUCACCCAUGUCCAGCGAAAGCUGGAGGGAGAAGGGCUCUGGC [Fiskers Ex 5 - 15] (puzzle: Exclusion 5) |  |  | apparent KD of MS2 coat protein [1]: 56.1 nM
5 | GCCGUAAGUGUGAGGAUAUACCUAUGGAUACAUAGGUAGAAGGCACAUGAGGAUCACCCAUGUUCUCAAUCGGC [Eli BMX r4m5] (Eterna round: R97, puzzle: Brourd's mod of Exclusion 4) | 667 | 125 | 
6 | GCCUACGCAGGAUAUGUCCAGGGAAACAUGAGGAUCACCCAUGUGGAGUGGACUCGGGUUGCAGAAGGGCGGGCAC [Eternabot (Original) Solution 3] (Eterna round: R97, puzzle: Exclusion 5) | 21.2 | 16 | 
7 | GCCUUACCGGUCAGGAUAUACAUUCGUCACUCCUUGUAGAAGGGACAUGAGGAUCACCCAUGUACAUUACAUUC [alecazam41] (Eterna round: R97, puzzle: Brourd's mod of Exclusion 4) | 22 | 26.1 | 
8 | GCCUUAUCCGUCAGGAUAUACAGCCGCUCGUUGUUGUAGAAGGGACAUGAGGAUCACCCAUGUACGUACCAUUG [alecazam4] (Eterna round: R97, puzzle: Brourd's mod of Exclusion 4) | 27.2 | 22.7 | 
9 | GCCUUAUCUGUCAGGAUAUACAAUAAAAUUUUUUUGUAGAAGGGACAUGAGGAUCACCCAUGUACAUUACAUUG [alecazam22] (Eterna round: R97, puzzle: Brourd's mod of Exclusion 4) | 315 | 49.7 | 
10 | GCGAAAACAAGCAAGUGAAACAUGAGGAUCACCCAUGUCCUCAUUUGCUCGUCUUAUAAAAGCUAUCGAAAGAUAGC [Mat - Sensor v3 - turn-off var 1 - Eli Mod - D49] (puzzle: Sensor v3, turn-off variant 1) |  |  | apparent KD of MS2 coat protein (Eterna round: R95, input ligand: FMN 200 uM): 9.41 nM; apparent KD of MS2 coat protein [1]: 205 nM; apparent KD of MS2 coat protein (Eterna round: R95, input ligand: none): 9.78 nM
11 | GCGCGAAGGUAGGAUAUCCGGCGAUCUUCCGUCGGAGAAGGACCCACAUGAGGAUCACCCAUGUGGUGAUCCUG [eternacac ex6r4 sub13] (Eterna round: R97, puzzle: Exclusion 6) | 12 | 23.9 | 
12 | GCGCGAAGGUAGGAUAUCGACGGAUCUUCCGGCCGAGAAGGACCCACAUGAGGAUCACCCAUGUGGUGAUCCUG [eternacac ex6r4 sub10] (Eterna round: R97, puzzle: Exclusion 6) | 17.5 | 16.5 | 
13 | GCGCGGUGAGGAUAUGCGGCGCGCGGGCGCGGGCGGGCGCGGCAGAAGGCACAUGAGGAUCACCCAUGUGGGCG [Prefect Exclusion4] (Eterna round: R97, puzzle: Exclusion 4) | 109 | 24.2 | 
14 | GCGCUGUGAGGAUAUUAGUAGUAGAUAAAAUAAACUAUUACUGAGAAGGCACAUGAGGAUCACCCAUGUUGCGC [Eli x4 4.04] (Eterna round: R97, puzzle: Exclusion 4) | 24.7 | 19.6 | 
15 | GCGGACAAGAUAUAAAUAUCAGAGACAUGAGGAUCACCCAUGUAGGAUAUCGAUUCGAAACGAAUCGAGAAGGGCAUAGUCCGC [JL denovo 1] (Eterna round: R96, puzzle: Exclusion NG 3) | 18.8 | 18.7 | apparent KD of MS2 coat protein [2]: 13.8 nM
16 | GCGGUACAUGAGGAUCACCCAUGUCAGGAUAUCCGCUGUUUGUUAAUAAACAAGCGGUGGAGAAGGGACUUCGC [-26.2, -25.5 kcal, 27% A] (Eterna round: R97, puzzle: Exclusion 1) | 35.2 | 31.5 | 

Row | Sequence | apparent KD of MS2 coat protein (input ligand: FMN 200 uM) [nM] | apparent KD of MS2 coat protein (input ligand: none) [nM] | further results
17 | GCGUGACAUGAGGAUCACCCAUGUGAGGAUAUCUGGAUAAUUUUUAUUUUAGAUAUCCAGAGAAGGCACAUGCU [Ex1-3: 2Z] (puzzle: Exclusion 1) |  |  | apparent KD of MS2 coat protein [1]: 62.4 nM
18 | GCUAACCGAGGAUAUACAUGAGGAUCACCCAUGUUCGAUAUCCUCAUUAGAACUACAUGUAGAAGGCGGUAAGC [Eternabot (Original) Solution 2] (Eterna round: R97, puzzle: Exclusion 3) | 15.2 | 13.8 | 
19 | GCUAAGGUAGGAUAUUGCGACGUGAACAUGAGGAUCACCCAUGUCUGGUCUGACAGGCAUCAAGAAGGGCCAGUCU [Eternabot (L2) Solution 30] (Eterna round: R97, puzzle: Exclusion 5) | 49.7 | 62.7 | 
20 | GCUAGGAAUGUCAGGAUAUGCAGAUCCUUGGAUCUGCAGAAGGGACAUGAGGAUCACCCAUGUGCUAACCUAGC [Mat - Exclusion 4 - JL Mod - D7] (Eterna round: R97, puzzle: Brourd's mod of Exclusion 4) | 110 | 24.3 | 
21 | GCUAUGCAAGGAUAUACAAGAUUAUGACAAGCGUGGAAACGACAUGAGGAUCACCCAUGUAGAAGGUGUUAUGC [Eternabot (L2) Solution 56] (Eterna round: R97, puzzle: Exclusion 2) | 58.1 | 65.5 | 
22 | GCUCAACAUGAGGAUCACCCAUGUCAGGAUAUGCGAAUUUCAUCAAAAGAUGAAAUUUGCAGAAGGGACUGAGC [Omei Ex1 A31] (Eterna round: R97, puzzle: Exclusion 1) | 27.2 | 22 | 
23 | GCUCCAGGAGGAUAUGCAUUCGAAAACAUGAGGAUCACCCAUGUAGGUGUCCACGUGCGAGCAGAAGGCCUAAAAC [Riqu] (Eterna round: R97, puzzle: Exclusion 5) | 286 | 646 | 
24 | GCUGCGCGCUGUCGGGCGUCUGGUCUUGGAGGGAUAGACACAUGAGGAUCACCCAUGUUUCGGGUGUUCUUUCUAUA [JR_Sensorv2_tov2_Sub1512] (Eterna round: R96, puzzle: Sensor v2, turn-off variant 2) | 187 | 183 | apparent KD of MS2 coat protein [2]: 118 nM
25 | GCUGGACGAGGAUAUGCAUUCGUGCUUCGGCACGUAAGGUCACAUGAGGAUCACCCAUGUAGAAGGUGUCCAGC [E2/6-B2] (Eterna round: R97, puzzle: Exclusion 2) | 24.1 | 18.4 | 
26 | GCUGGUCGAGGAUAUACAAUCGUGCUUCGGCACGUAAGGUCACAUGAGGAUCACCCAUGUAGAAGGUGACCAGC [E2/2-B1] (Eterna round: R97, puzzle: Exclusion 2) | 57.7 | 20.7 | 
27 | GCUGGUCGAGGAUAUACAUGAGGAUCACCCAUGUGGUUACGUGACGAUAGUCACGAAUGUAGAAGGCGACCAGC [E3/4-A1] (Eterna round: R97, puzzle: Exclusion 3) | 2200 | 295 | 
28 | GCUGGUCGAGGAUAUGCAUAUACUGGAUACAGUGGAAGGUCACAUGAGGAUCACCCAUGUAGAAGGCGACCAGC [EX2 #36] (Eterna round: R97, puzzle: Exclusion 2) | 634 | 527 | 
29 | GCUUCGGCAGGAUAUACAAUGAAGUUGAGAAAUCGGCUUCGACAUGAGGAUCACCCAUGUAGAAGGGUUGAAGU [-26.3, -24 kcal, A 32% 3, 3 bis] (Eterna round: R97, puzzle: Exclusion 2) | 36.3 | 48.6 | 
30 | GCUUCUGGGCAAGGAUAUCCUGCGCUGUUCUGGUUCGUGUCUGUCACAUGAGGAUCACCCAUGUGGGAGAAGGUGCCUGUGGCG [Design 67] (Eterna round: R96, puzzle: Exclusion NG 2) | 20.9 | 24.8 | apparent KD of MS2 coat protein [2]: 17 nM
31 | GCUUGAGCUGUGAGGAUAUUUCGAGUGAAAGCUUGAGAGAAGGCACAUGAGGAUCACCCAUGUAAGGUUCGAGU [-26, -23.9 kcal, A 28%, 1bis-1bis] (Eterna round: R97, puzzle: Brourd's mod of Exclusion 4) | 13.6 | 13.2 | 
